We go through one substance from article PMC7538587.

“And” between values parts separate entries of the source, which are not always exact repeats. Equal values may be shown once.

The target in experiment [1] is SALT protein (Oryza sativa L. (Pusa basmati-1)) (UniProt A2WPN7). Description: SDS-PAGE without heat denaturation; purified SALT, 1 mg/ml, 12% gel, with SDS and BME, not heated; confirmed by immunoblotting.
Experiment [2] has the same target. Description: SEC; Superdex 200 10/300 GL, 200 µl of 5 mg/ml SALT, 20 mM each of mannose and galactose in sample and buffer; calibrated with marker proteins.
The target is the same in experiment [3]. Description: SAXS; SALT freshly eluted from gel filtration, 5, 11 and 22 mg/ml, 20 °C; molecular weight from SAXS about 32.2-33.4 kDa.

As to “SALT protein (from UniProt A2WPN7 1-145) (natural protein)”, the stoichiometry N is 2 and 4 in experiment [1]; 2 in experiment [2]; 2 in experiment [3].
